# Source: the RNAGym collection of RNA variant scans (doi:10.1021/acssynbio.7b00057)
# B1: Pistol ribozyme (parent)
# chain: GGGUCGUUGUUCCAUAAUCGCGUGGAUAUGGCACGCAAGUUUCUACCGGGCACCGUAAAUGUCCGACUGGAGCCGUUCGGGCGGCUAUAAACAGACCUCAGGCCCGAAGCGUGGCGGCACCUGCCGCCGGUGGUAAAAAAGAUCGGAAGAGCACACGUCU
# Variants of: B1
# Assay: aptazyme ON/OFF ratio, guanine; higher = stronger switching; co-transcriptional cleavage with and without guanine
row,Variant,aptazyme ON/OFF ratio
1,GGGUCGUACGUCUAUAAUCGCGUGGAUAUGGCACGCAAGUUUCUACCGGGCACCGUAAAUGUCCGACUGGAGCCGUUCGGGCGGCUAUAAACAGACCUCAGGCCCGAAGCGUGGCGGCACCUGCCGCCGGUGGUAAAAAAGAUCGGAAGAGCACACGUCU [U8A G9C U10G C13U],1.31
2,GGGUCGGCCUUAUAUAAUCGCGUGGAUAUGGCACGCAAGUUUCUACCGGGCACCGUAAAUGUCCGACUGGAGCCGUUCGGGCGGCUAUAAACAGACCUCAGGCCCGAAGCGUGGCGGCACCUGCCGCCGGUGGUAAAAAAGAUCGGAAGAGCACACGUCU [U7G U8C G9C C12A C13U],1.16
3,GGGUCGCAGCAACAUAAUCGCGUGGAUAUGGCACGCAAGUUUCUACCGGGCACCGUAAAUGUCCGACUGGAGCCGUUCGGGCGGCUAUAAACAGACCUCAGGCCCGAAGCGUGGCGGCACCUGCCGCCGGUGGUAAAAAAGAUCGGAAGAGCACACGUCU [U7C U8A U10C U11A C12A],1.27
4,GGGUCGCCAAGCCAUAAUCGCGUGGAUAUGGCACGCAAGUUUCUACCGGGCACCGUAAAUGUCCGACUGGAGCCGUUCGGGCGGCUAUAAACAGACCUCAGGCCCGAAGCGUGGCGGCACCUGCCGCCGGUGGUAAAAAAGAUCGGAAGAGCACACGUCU [U7C U8C G9A U10A U11G],1.55
5,GGGUCGACCCAGCAUAAUCGCGUGGAUAUGGCACGCAAGUUUCUACCGGGCACCGUAAAUGUCCGACUGGAGCCGUUCGGGCGGCUAUAAACAGACCUCAGGCCCGAAGCGUGGCGGCACCUGCCGCCGGUGGUAAAAAAGAUCGGAAGAGCACACGUCU [U7A U8C G9C U10C U11A C12G],1.02
6,GGGUCGCUACAGAAUAAUCGCGUGGAUAUGGCACGCAAGUUUCUACCGGGCACCGUAAAUGUCCGACUGGAGCCGUUCGGGCGGCUAUAAACAGACCUCAGGCCCGAAGCGUGGCGGCACCUGCCGCCGGUGGUAAAAAAGAUCGGAAGAGCACACGUCU [U7C G9A U10C U11A C12G C13A],1.11
7,GGGUCGUAAGGGUAUAAUCGCGUGGAUAUGGCACGCAAGUUUCUACCGGGCACCGUAAAUGUCCGACUGGAGCCGUUCGGGCGGCUAUAAACAGACCUCAGGCCCGAAGCGUGGCGGCACCUGCCGCCGGUGGUAAAAAAGAUCGGAAGAGCACACGUCU [U8A G9A U10G U11G C12G C13U],1.05
8,GGGUCGGACAUUGAUAAUCGCGUGGAUAUGGCACGCAAGUUUCUACCGGGCACCGUAAAUGUCCGACUGGAGCCGUUCGGGCGGCUAUAAACAGACCUCAGGCCCGAAGCGUGGCGGCACCUGCCGCCGGUGGUAAAAAAGAUCGGAAGAGCACACGUCU [U7G U8A G9C U10A C12U C13G],0.956
9,GGGUCGAUUAGUUAUAAUCGCGUGGAUAUGGCACGCAAGUUUCUACCGGGCACCGUAAAUGUCCGACUGGAGCCGUUCGGGCGGCUAUAAACAGACCUCAGGCCCGAAGCGUGGCGGCACCUGCCGCCGGUGGUAAAAAAGAUCGGAAGAGCACACGUCU [U7A G9U U10A U11G C12U C13U],1.22
10,GGGUCGUCAAUGGAUAAUCGCGUGGAUAUGGCACGCAAGUUUCUACCGGGCACCGUAAAUGUCCGACUGGAGCCGUUCGGGCGGCUAUAAACAGACCUCAGGCCCGAAGCGUGGCGGCACCUGCCGCCGGUGGUAAAAAAGAUCGGAAGAGCACACGUCU [U8C G9A U10A C12G C13G],1.18
11,GGGUCGUUGAGAAAUAAUCGCGUGGAUAUGGCACGCAAGUUUCUACCGGGCACCGUAAAUGUCCGACUGGAGCCGUUCGGGCGGCUAUAAACAGACCUCAGGCCCGAAGCGUGGCGGCACCUGCCGCCGGUGGUAAAAAAGAUCGGAAGAGCACACGUCU [U10A U11G C12A C13A],1.04
12,GGGUCGCCCGUUAAUAAUCGCGUGGAUAUGGCACGCAAGUUUCUACCGGGCACCGUAAAUGUCCGACUGGAGCCGUUCGGGCGGCUAUAAACAGACCUCAGGCCCGAAGCGUGGCGGCACCUGCCGCCGGUGGUAAAAAAGAUCGGAAGAGCACACGUCU [U7C U8C G9C U10G C12U C13A],1.08
13,GGGUCGUAAUGGUAUAAUCGCGUGGAUAUGGCACGCAAGUUUCUACCGGGCACCGUAAAUGUCCGACUGGAGCCGUUCGGGCGGCUAUAAACAGACCUCAGGCCCGAAGCGUGGCGGCACCUGCCGCCGGUGGUAAAAAAGAUCGGAAGAGCACACGUCU [U8A G9A U11G C12G C13U],1.27
14,GGGUCGUUCUUGUAUAAUCGCGUGGAUAUGGCACGCAAGUUUCUACCGGGCACCGUAAAUGUCCGACUGGAGCCGUUCGGGCGGCUAUAAACAGACCUCAGGCCCGAAGCGUGGCGGCACCUGCCGCCGGUGGUAAAAAAGAUCGGAAGAGCACACGUCU [G9C C12G C13U],1.26
15,GGGUCGCUCUCCAAUAAUCGCGUGGAUAUGGCACGCAAGUUUCUACCGGGCACCGUAAAUGUCCGACUGGAGCCGUUCGGGCGGCUAUAAACAGACCUCAGGCCCGAAGCGUGGCGGCACCUGCCGCCGGUGGUAAAAAAGAUCGGAAGAGCACACGUCU [U7C G9C U11C C13A],1.02
16,GGGUCGGUACUAAAUAAUCGCGUGGAUAUGGCACGCAAGUUUCUACCGGGCACCGUAAAUGUCCGACUGGAGCCGUUCGGGCGGCUAUAAACAGACCUCAGGCCCGAAGCGUGGCGGCACCUGCCGCCGGUGGUAAAAAAGAUCGGAAGAGCACACGUCU [U7G G9A U10C C12A C13A],1.14
17,GGGUCGGGGAGAGAUAAUCGCGUGGAUAUGGCACGCAAGUUUCUACCGGGCACCGUAAAUGUCCGACUGGAGCCGUUCGGGCGGCUAUAAACAGACCUCAGGCCCGAAGCGUGGCGGCACCUGCCGCCGGUGGUAAAAAAGAUCGGAAGAGCACACGUCU [U7G U8G U10A U11G C12A C13G],1.15
18,GGGUCGCUGGCCCAUAAUCGCGUGGAUAUGGCACGCAAGUUUCUACCGGGCACCGUAAAUGUCCGACUGGAGCCGUUCGGGCGGCUAUAAACAGACCUCAGGCCCGAAGCGUGGCGGCACCUGCCGCCGGUGGUAAAAAAGAUCGGAAGAGCACACGUCU [U7C U10G U11C],1.1
